# In patent US20240316154A1:
# Key:
# Test in all cases: cell-based or functional assay
# [1] = target: human GFRAL and human RET on HEK293 cells (human) (UniProt Q6UXV0)
# [2] = target: IL-2 receptor-dimer pair of the PathHunter IL-2 BioAssay cells
# [3] = target: human CNTF receptor (CNTFR) on IMR-32 cells (human) (UniProt P26992)
# [4] = target: human ErbB4 receptor (NCBI Ref. Seq. No. NP_001036064.1) (human) (UniProt Q15303)
# Sequence of human CNTF receptor (CNTFR) on IMR-32 cells (human) (P26992 23-342): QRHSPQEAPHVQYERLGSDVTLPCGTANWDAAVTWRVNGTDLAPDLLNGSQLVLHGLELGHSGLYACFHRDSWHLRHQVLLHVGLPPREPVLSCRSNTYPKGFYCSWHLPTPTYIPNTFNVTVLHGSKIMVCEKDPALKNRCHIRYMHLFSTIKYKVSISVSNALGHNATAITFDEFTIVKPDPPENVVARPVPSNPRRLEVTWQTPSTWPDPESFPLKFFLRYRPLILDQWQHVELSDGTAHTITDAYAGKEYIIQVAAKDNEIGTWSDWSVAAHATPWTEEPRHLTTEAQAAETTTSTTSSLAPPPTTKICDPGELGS
substance,measurement,setting,value
Human GDF15 (from UniProt Q99988 197-308) (ligand),"hGFRAL/RET EC50 (pM), p-ERK1/2 AlphaLISA",[1],2.85 pM
Human IL-2 (reference standard of the PathHunter IL-2 BioAssay Kit) (from UniProt P60568 21-153) (ligand),"EC50 (nM), PathHunter IL-2 BioAssay",[2],0.13 nM
human CNTF (R&D Systems; Cat #257-NT-010) (from UniProt P26441 2-200) (ligand),hCNTFR EC50 pM GeoMean (pSTAT3 in IMR-32 cells),[3],3.5 pM
rhNRG-1 (eurofins cat #92-1091) (from UniProt Q02297 177-241) (ligand),"EC50 (ng/mL), PathHunter ErbB4/ErbB4 dimerization assay",[4],16.5 ng/mL
